# B1: murine anti-IgE/M1′ antibody 7A6 (antibody)
# heavy: QVQLQQSGAELVRPGASVTLSCKASGYTFIDYEMHWVKQTPVHGLEWIGAIDPETGTTAYNQKFKGKATLTAAKSSSTAYMELRSLTSEDSAVYYCTRLRPHYDYDNAMDSWGQGTTLTVSSASTKGPSVYPLAPGSAAQTNSMVTLGCLVKGYFPEPVTVTWNSGSLSSGVHTFPAVLQSDLYTLSSSVTVPSSTWPSETVTCNVAHPASSTKVDKKIVPRDCGCKPCICTVPEVSSVFIFPPKPKDVLTITLTPKVTCVVVDISKDDPEVQFSWFVDDVEVHTAQTQPREEQFNSTFRSVSELPIMHQDWLNGKEFKCRVNSAAFPAPIEKTISKTKGRPKAPQVYTIPPPKEQMAKDKVSLTCMITDFFPEDITVEWQWNGQPAENYKNTQPIMDTDGSYFVYSKLNVQKSNWEAGNTFTCSVLHEGLHNHHTEKSLSHSPGK
# light: DIVMSQSPSSLTVSVGEKVTLSCKSSQTLLYSTNQKNYLAWYQQKPGQSPKLLIYWASTRESGVPDRFTGSGSGTDFTLTISSVKAEDLAVYYCQQYYSYPYTFGGGTKVEIKRADAAPTVSIFPPSSEQLTSGGASVVCFLNNFYPKDINVKWKIDGSERQNGVLNSWTDQDSKDSTYSMSSTLTLTKDEYERHNSYTCEATHKTSTSPIVKSFNRNEC
# B2: murine anti-IgE/M1′ antibody 47H4 (antibody)
# heavy: EVKLVESGGGLVQPGGSRKLSCAASGFTFSDYGMAWVRQAPGKGPEWVAFISDLAYTIYYADTVTGRFTISRENAKNTLYLEMSSLRSEDTALYYCARDNWDAMDYWGQGTSVTVSSAKTTPPSSVYPLAPGSAAQTNSMVTLGCLVKGYFPEPVTVTWNSGSLSSGVHTFPAVLQSDLYTLSSSVTVPSSTWPSETVTCNVAHPASSTKVDKKIVPRDCGCKPCICTVPEVSSVFIFPPKPKDVLTITLTPKVTCVVVDISKDDPEVQFSWFVDDVEVHTAQTQPREEQFNSTFRSVSELPIMHQDWLNGKEFKCRVNSAAFPAPIEKTISKTKGRPKAPQVYTIPPPKEQMAKDKVSLTCMITDFFPEDITVEWQWNGQPAENYKNTQPIMDTDGSYFVYSKLNVQKSNWEAGNTFTCSVLHEGLHNHHTEKSLSHSPGK
# light: DIVLTQTPLSLPVSLGDQASISCRSSQSLVHNNGNTYLHWYLQKPGQSPKLLIYKVSNRFSGVPDRFSGSGSGTDFTLKISRLEAEDLGVYFCSQNTLVPWTFGGGTKVEIKRADAAPTVSIFPPSSEQLTSGGASVVCFLNNFYPKDINVKWKIDGSERQNGVLNSWTDQDSKDSTYSMSSTLTLTKDEYERHNSYTCEATHKTSTSPIVKSFNRNEC
# B3: murine anti-IgE/M1′ antibody 26A11 (antibody)
# heavy: EVQLQQSGPELVKPGASVKMSCKASGYTFTDYYMMWVKQSHGKSLEWIGDINPNNYDTSYNQKFKGKATLTVDKSSSTAYIQLNSLTSEDSAVYYCASKAYWGQGTLVTVSAASTTPPSVYPLAPGSAAQTNSMVTLGCLVKGYFPEPVTVTWNSGSLSSGVHTFPAVLQSDLYTLSSSVTVPSSTWPSETVTCNVAHPASSTKVDKKIVPRDCGCKPCICTVPEVSSVFIFPPKPKDVLTITLTPKVTCVVVDISKDDPEVQFSWFVDDVEVHTAQTQPREEQFNSTFRSVSELPIMHQDWLNGKEFKCRVNSAAFPAPIEKTISKTKGRPKAPQVYTIPPPKEQMAKDKVSLTCMITDFFPEDITVEWQWNGQPAENYKNTQPIMDTDGSYFVYSKLNVQKSNWEAGNTFTCSVLHEGLHNHHTEKSLSHSPGK
# light: DIQMTQTTSSLSASLGDRVTITCRSSQDISNSLNWYQQKPDGPVKLLIYSTSRLHSGVPSRFSGSGSGTDYSLTISNLEQEDLATYFCQQGHTLPWTFGGGTKVEIKRADAAPTVSIFPPSSEQLTSGGASVVCFLNNFYPKDINVKWKIDGSERQNGVLNSWTDQDSKDSTYSMSSTLTLTKDEYERHNSYTCEATHKTSTSPIVKSFNRNEC
# B4: afucosylated humanized anti-IgE/M1′ antibody 47H4 v5 (antibody, V domains shown)
# VH: EVQLVESGGGLVQPGGSLRLSCAASGFTFSDYGIAWVRQAPGKGLEWVAFISDLAYTIYYADTVTGRFTISRDNSKNTLYLQMNSLRAEDTAVYYCARDNWDAMDYWGQGTLVTVSS
# VL: DIQMTQSPSSLSASVGDRVTITCRSSQSLVHNNANTYLHWYQQKPGKAPKLLIYKVSNRFSGVPSRFSGSGSGTDFTLTISSLQPEDFATYYCSQNTLVPWTFGQGTKVEIKR
# modifications: here or on the partner: afucosylated Fc carbohydrate (produced in BIOWA cell lines)
# B5: humanized anti-IgE/M1′ antibody 47H4.v5 (antibody, V domains shown)
# VH: B4 VH
# VL: B4 VL
# Molecular target: human IgE with the M1′ sequence (long form of membrane IgE) expressed on transduced BJAB or Daudi cells (human), P01854
# Experiment: cell-based or functional assay
# human IgE with the M1′ sequence (long form of membrane IgE) expressed on transduced BJAB or Daudi cells (human), P01854, sequence (P01854 116-546 I515L limits assumed): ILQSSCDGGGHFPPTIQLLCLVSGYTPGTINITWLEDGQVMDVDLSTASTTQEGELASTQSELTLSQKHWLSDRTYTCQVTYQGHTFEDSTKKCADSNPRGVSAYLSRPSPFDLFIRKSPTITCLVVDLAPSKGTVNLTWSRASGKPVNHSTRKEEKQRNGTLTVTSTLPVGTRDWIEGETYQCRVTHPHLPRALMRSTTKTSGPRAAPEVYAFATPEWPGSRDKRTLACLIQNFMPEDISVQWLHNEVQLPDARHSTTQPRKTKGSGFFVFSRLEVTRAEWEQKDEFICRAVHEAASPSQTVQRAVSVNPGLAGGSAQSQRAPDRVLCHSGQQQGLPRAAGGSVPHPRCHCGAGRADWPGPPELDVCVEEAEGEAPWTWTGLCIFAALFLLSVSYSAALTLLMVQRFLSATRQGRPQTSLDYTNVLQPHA
Binder,"apoptosis of Daudi-IgE/Long cells (Annexin V/PI, 72 h), no crosslinker; concentration at which seen",EC50 of ADCC: NK-cell lysis of BJAB cells overexpressing human IgE/M1′ (LDH release),other results
B1,> 10 µg/mL,,
B2,> 10 µg/mL,,
B3,,,"apoptosis of Daudi-IgE/Long cells, no crosslinker; concentration at which seen: > 0.1 µg/mL; percent apoptosis of Daudi-IgE/Long cells, no crosslinker: 30 to 50%"
B4,,0.83 nM,
B5,,6.6 nM,

# Reference: patent US20120149881A1
